Test results reported in patent publication US20160024208A1 (Regeneron, published 2016).
Changes are numbered by the printed parent chain.

T1: C-term Biotin Nav1.7 (3-3) peptide, human (human, C-terminal biotin attached via a G4S linker)
T1 construct: Synthetic peptide; also called Human Nav1.7 3-3 C-term biotin
T1 peptide: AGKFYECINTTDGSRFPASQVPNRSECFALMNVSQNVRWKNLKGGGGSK

B1: H1M797N (antibody, V domains shown)
VH: QVQLVESGGGVVQPGRSLRLSCAASGFTFSSYGMHWVRQAPGKGLEWVAVISYDGNNKHFADSVKGRFTISRDNSKNTLNLQMNSLRAEDRAVYYCARGASGFVLDIWGQGTMVTVSS
VL: DIVMTQTPLSSPVTLGQPASISCRSSQSLVRSDGNTYLSWLQQRPGQPPRLLIYKISNRFSGVPDRFSGSGAGTDFTLKISRVEAEDVGIYFCMQTTQFPFTFGPGTKVDIK
B2: H1M801N (antibody, V domains shown)
VH: QVQVVESGGGVVQPGRSLRLSCAASGFTFSNYGMHWVRQAPGKGLEWVTVISYDGSNKNYADSVKGRFTISRDNSKNTLYLQMNSLRAEDTAMYYCARGGSGFAFDIWGQGTMVTVSS
VL: B1 VL with E86D, I90V, F92Y
notes: also called H1H801N
B3: H1M852N (antibody, V domains shown)
VH: QVQLVESGGGVVQPGRSLTLSCAASGFMFNRFGMHWVRQAPGKGLDWVAVIWYDGSNKYYADSVKGRFTISRDNSKNTLYLQVNSLRAEDTAVYYCAREGTPHYYDSSGLDYWGQGTLVTVSS
VL: AIQMTQSPSSLSAYVGDRVTITCRASQDIRNDLGWYQQKPGKAPNLLIYDISSLQSGVPSRFSGSGSGTDFTLTISSLQPEDFATYYCLQDYNYPLTFGGGTKVEIK
notes: constant region may differ; also called H4H852N
B4: H1M879N (antibody, V domains shown)
VH: EVQLVESGGGLVKPGGSLRLSCAASGFTFSSYTIHWVRQAPGKGLEWVSSISSSSSYIYYVDSVKGRFTISRDNAKNSVYLQMNSLRAEDTAVYYCATSSITARGYFDYWGQGTLVTVSS
VL: EIVLTQSPATLSLSPGERVTLSCRASQSVSSYLAWYQQKPGQAPRLLIYDASNRATGIPARFSGSGSGTDFTLTISSLEPEDFAVYYCQQRNIWPPTFGQGTKVEIK
notes: Hybridoma-derived
B5: H1M836N (antibody, V domains shown)
VH: QVQLVESGGGVVQPGRSLRLSCAASGFTFSSYGMHWVRQAPGKGLEWVAVISYDGNNKYYADSVKGRFTISRDNSKNTLYLQMNSLRAEDTAVYYCAKGSAGYALDYWGQGTLVTVSS
VL: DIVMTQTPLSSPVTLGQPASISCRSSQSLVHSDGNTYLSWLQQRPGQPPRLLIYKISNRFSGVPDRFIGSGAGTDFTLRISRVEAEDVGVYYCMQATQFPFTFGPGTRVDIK
B6: H1H1006B (antibody, V domains shown)
VH: EVQLVESGPGLVKSSETLSLKCTVSGGSISSSGYYWGWIRQPPGKGLEWIGSIHRSGSTFYNPSLKSRVTISVDTSKSQFSLRLTSVTAADTSVYFCGRHGRDYYYGMDVWGQGTTVTVSS
VL: DIQMTQSPSSVSASVGDRVTITCRSSQDINNWLVWYQQKPGKAPKVLIYGASRLQSGVPSRFSGSGSGTDFTLTISSLQPEDFATYYCQQANSFPLTFGGGTKVEIKR
notes: Fully human antibody; also called H4H1006B-1

Legend:
[1] = molecular target: T2, full-length human Nav1.7 fused at its N-terminus to GFP, expressed in HEK293 cells (human, UniProt Q15858 1-1988); assay: cell-based or functional assay
[2] = molecular target: T2, full-length human Nav1.7 fused at its …; assay: flow cytometry on Nav1.7-GFP-HEK293, antibody 3.3 nM
Procedure: The specificity of binding of anti-Naᵥ 1.7 human antibodies to full-length Naᵥ 1.7 expressed in HEK293 cells was determined by peptide competition experiments using flow cytometry.
HEK293 cells stably-transfected with full-length Naᵥ 1.7 fused at its N-terminus to GFP (Naᵥ 1.7-GFP-HEK293) were used for this study. Antibody binding to the transfected cells overexpressing Naᵥ 1.7 was compared to binding in the presence of excess peptide and to binding to the parental HEK293 cell line. To perform the binding experiments, adherent cells were collected using 1 mM EDTA in PBS, washed and re-suspended in cold PBS containing 5% FBS. For each binding experiment the anti-Naᵥ 1.7 antibody at a final concentration of 3.3 nM (in PBS/5% FBS) was added to cells either directly or after incubating for 10 min on ice with a 1000-fold molar excess (3.3 uM final concentration in PBS/5% FBS) of synthetic peptide with sequence corresponding to the loop specificity of the antibody. The antibodies designated as H4H391P, H4H443B, H4H448B, and H1M797N were preincubated as described above with a synthetic peptide corresponding to EC loop 3-1 (amino acid residues 269-338 of SEQ ID NO: 670), whereas the antibodies designated as H4H468P and H1 M852N were preincubated with a synthetic peptide corresponding to EC loop 3-3 (amino acid residues 1333-1382 of SEQ ID NO: 670). The antibody or antibody-peptide mixture was then allowed to incubate with cells for 20 min on ice, followed by addition of 500 uL of cold PBS/5% FBS. Cells were collected by centrifugation, resuspended in 500 uL of cold PBS/5% FBS, and then secondary antibody matched to the antibody isotype (either anti-human-Fc conjugated to Cyanine 5 or anti-mouse-Fc conjugated to allophyococyanin) was added. Binding was detected on the flow cytometry instrument and analyzed as percent binding using the instrument software. For FACS analysis appropriate gating was applied so that only healthy, live cells were counted. Background staining of secondary antibodies alone to Naᵥ 1.7-GFP-HEK293 cells was tested and recorded for all samples, and results ranged between 1-2% binding.

[3] = molecular target: T1, C-term Biotin Nav1.7 (3-3) peptide, …; assay: SPR, captured biotin-peptide, antibody analyte
[4] = molecular target: T3, mouse Nav 1.7 in DRG neurons of wild type (Scn9a +/+) mice (mouse, UniProt Q62205 1-1984); assay: immunocytochemistry on cultured DRG neurons, antibody 66 nM
T3 construct: whole, on cells
T3 sequence (Q62205 whole entry): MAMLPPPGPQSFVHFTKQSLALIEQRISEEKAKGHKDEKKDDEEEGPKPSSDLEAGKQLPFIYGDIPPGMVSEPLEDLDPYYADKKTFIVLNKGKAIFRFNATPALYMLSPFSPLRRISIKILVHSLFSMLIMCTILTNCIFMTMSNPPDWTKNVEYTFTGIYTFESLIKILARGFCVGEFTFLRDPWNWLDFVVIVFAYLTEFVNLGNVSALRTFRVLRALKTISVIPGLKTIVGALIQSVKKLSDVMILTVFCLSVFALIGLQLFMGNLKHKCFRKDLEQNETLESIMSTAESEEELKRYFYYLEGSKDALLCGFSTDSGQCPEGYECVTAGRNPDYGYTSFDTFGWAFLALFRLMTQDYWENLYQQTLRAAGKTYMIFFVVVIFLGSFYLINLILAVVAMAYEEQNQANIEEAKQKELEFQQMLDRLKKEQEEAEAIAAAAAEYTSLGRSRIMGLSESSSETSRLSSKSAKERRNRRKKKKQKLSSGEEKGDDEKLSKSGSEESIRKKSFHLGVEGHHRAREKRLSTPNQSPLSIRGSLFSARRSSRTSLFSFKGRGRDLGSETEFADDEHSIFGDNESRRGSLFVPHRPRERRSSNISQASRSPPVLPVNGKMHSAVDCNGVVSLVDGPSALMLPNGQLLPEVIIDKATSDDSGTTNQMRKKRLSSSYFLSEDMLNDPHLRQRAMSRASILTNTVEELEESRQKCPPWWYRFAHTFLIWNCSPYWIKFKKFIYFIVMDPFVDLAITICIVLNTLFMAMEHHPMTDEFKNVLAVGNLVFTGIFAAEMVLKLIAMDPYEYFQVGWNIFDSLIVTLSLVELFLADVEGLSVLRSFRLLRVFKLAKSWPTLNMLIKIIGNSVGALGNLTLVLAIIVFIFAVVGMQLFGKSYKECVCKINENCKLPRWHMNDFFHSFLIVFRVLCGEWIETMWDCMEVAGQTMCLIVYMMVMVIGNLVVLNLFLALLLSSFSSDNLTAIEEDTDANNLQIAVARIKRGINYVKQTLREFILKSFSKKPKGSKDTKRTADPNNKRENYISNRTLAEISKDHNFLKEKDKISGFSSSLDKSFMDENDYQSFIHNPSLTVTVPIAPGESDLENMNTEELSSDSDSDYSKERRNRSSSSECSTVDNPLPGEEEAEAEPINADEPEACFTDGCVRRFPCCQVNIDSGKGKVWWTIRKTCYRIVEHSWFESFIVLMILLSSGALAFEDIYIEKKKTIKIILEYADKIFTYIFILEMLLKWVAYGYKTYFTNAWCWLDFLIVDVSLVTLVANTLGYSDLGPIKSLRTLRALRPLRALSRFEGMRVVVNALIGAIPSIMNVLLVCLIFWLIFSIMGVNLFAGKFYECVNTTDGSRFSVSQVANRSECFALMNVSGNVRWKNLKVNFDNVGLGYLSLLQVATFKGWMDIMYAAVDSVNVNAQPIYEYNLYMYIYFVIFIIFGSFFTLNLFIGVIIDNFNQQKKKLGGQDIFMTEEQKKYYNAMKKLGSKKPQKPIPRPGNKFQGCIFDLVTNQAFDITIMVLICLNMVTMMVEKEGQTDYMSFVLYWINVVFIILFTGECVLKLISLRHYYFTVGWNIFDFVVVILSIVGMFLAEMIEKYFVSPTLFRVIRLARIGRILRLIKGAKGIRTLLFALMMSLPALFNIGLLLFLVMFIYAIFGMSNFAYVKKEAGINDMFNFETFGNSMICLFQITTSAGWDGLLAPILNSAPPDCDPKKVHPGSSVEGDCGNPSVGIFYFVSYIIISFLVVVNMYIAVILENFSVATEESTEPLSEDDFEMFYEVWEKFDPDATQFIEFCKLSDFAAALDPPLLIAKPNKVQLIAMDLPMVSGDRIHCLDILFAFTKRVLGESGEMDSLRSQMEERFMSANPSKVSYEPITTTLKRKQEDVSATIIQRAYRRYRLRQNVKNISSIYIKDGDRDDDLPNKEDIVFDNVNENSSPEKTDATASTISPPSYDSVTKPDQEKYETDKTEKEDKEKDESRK
Procedure: Briefly, lumbar DRGs were harvested from Scn9a^{hu/+}, Scn9a^{hu3-1/hu3-1} and Scn9a^{+/+} mice. After dissociation, cells were plated at a density of 5.5×10⁴ cells/well on 96 well plates treated with poly-DL-ornithine (0.1 mg/ml) and laminin (5 μg/ml) followed by incubation at 37° C. in 96.5% air and 3.5% CO₂. Neurons were maintained in culture in DMEM supplemented with 50 ng/ml nerve growth factor, 100 U/ml penicillin/streptomycin, MEM vitamins, and 10% heat-inactivated fetal calf serum.
After 3 to 8 days in culture, neurons were fixed in 4% PFA and 4% sucrose in PBS for 30 minutes, and permeabilized in 10% NGS and 0.1% Triton X-100. Neurons were then incubated overnight at 4° C. with anti-Naᵥ 1.7 antibodies at 66 nM (1 μg). The next day, neurons were incubated in 1:400 dilution of anti-human Alexa Fluor® 594 (Invitrogen) conjugated secondary antibody for 1 h at RT. Images were taken using a fluorescent microscope.

Binder | Current blocking (Average % inhibition), IonWorks Quattro, 223 nM antibody [1] [%] | % Binding Nav1.7 (Stable Line) [2] [%] | Kd [3] [nM] | t1/2 [3] [min] | binding result [4]
B1 | -31 | 45.4 |  |  | 
B2 |  | 49.5 |  |  | 
B3 | 7 | 64.1 | 117 | 1.3 | 
B4 |  | 63 |  |  | 
B5 |  | 68.9 |  |  | 
B6 | 64 |  |  |  | binds
